Measurements reported in patent publication US20190169302A1 (SORRENTO THERAPEUTICS, published 2019).
Like-named read-outs stand apart in the source and are kept apart here.

T1: human OX40 antigen (soluble, titrated in the ELISA of Example 1) (UniProt P43489 29-216)
T1 chain: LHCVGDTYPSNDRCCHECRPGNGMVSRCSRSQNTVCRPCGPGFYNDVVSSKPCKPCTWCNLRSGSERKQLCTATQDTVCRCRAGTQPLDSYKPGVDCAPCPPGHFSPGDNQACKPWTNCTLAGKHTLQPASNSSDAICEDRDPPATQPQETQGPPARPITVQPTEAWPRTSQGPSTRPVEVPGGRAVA

T2: Recombinant human OX40/His (human, UniProt P43489 29-216, limits assumed)
T2 construct: SPR analyte; also called human OX40 proteins; not shown: His tag
T2 sequence: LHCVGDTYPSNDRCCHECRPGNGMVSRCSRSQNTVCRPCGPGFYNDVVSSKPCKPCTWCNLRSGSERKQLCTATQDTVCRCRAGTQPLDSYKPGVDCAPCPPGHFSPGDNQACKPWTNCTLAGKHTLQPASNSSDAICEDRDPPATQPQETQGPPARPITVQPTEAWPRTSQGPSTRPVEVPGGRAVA

T3: Recombinant human OX40/His (UniProt P43489 29-216)
T3 chain: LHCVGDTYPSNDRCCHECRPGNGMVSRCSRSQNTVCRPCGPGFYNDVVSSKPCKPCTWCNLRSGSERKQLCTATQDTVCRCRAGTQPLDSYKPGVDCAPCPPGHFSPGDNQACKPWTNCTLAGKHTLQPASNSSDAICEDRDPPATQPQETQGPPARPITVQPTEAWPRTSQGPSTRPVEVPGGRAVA

T4: mouse OX40 (mouse, UniProt P47741 20-211, limits assumed)
T4 construct: Capture on Ni-NTA implies a His tag; also called mouse OX40 antigen
T4 sequence (looked up): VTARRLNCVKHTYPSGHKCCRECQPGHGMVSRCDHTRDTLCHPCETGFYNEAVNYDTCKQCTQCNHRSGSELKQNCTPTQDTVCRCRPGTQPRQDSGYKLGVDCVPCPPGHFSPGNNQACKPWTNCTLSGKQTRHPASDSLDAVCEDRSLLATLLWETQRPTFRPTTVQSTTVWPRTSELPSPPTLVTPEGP

T5: membrane-bound human OX40 (on human OX40-expressing cells) (human, UniProt P43489 29-277)
T5 construct: also called human OX40-expressing MJ cells; OX40+ HEK293-NFkB-luciferase reporter cells
T5 sequence: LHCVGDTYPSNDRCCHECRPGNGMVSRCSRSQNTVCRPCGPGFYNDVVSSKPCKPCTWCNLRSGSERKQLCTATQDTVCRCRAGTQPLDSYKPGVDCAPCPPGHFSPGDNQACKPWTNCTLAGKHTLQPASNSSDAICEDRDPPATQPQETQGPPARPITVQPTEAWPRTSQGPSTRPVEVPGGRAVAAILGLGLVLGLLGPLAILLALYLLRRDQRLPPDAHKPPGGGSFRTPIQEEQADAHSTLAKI


Key:
[1] = target: human OX40/His (UniProt P43489); test: SPR
[2] = target: T1, human OX40 antigen (soluble, titrated …); test: ELISA, immobilized Ab
[3] = target: T2, Recombinant human OX40/His; test: SPR (Biacore T200), antibody captured by anti-human Fc, OX40/His as analyte, 1:1 model
Procedure: Kinetic interactions between antibodies and human OX40 proteins were measured at 25° C. using Biacore T200 surface plasmon resonance (GE Healthcare). Anti-human fragment crystallizable region (Fc region) antibody was immobilized on a CMS sensor chip to approximately 8000 resonance units (RU) using standard N-hydroxysuccinimide/N-Ethyl-N′-(3-dimethylaminopropyl) carbodiimide hydrochloride (NHS/EDC) coupling methodology. The anti-OX40 antibody (2 μg/mL) was captured for 60 seconds at a flow rate of 10 μL/minute. Recombinant human OX40/His was serially diluted in a running buffer of 0.01 M HEPES pH 7.4, 0.15 M NaCl, 3 mM EDTA, 0.05% v/v Surfactant P20 (HBS-EP+). All measurements were conducted in HBS-EP+ buffer with a flow rate of 30 μL/minute. A 1:1 (Langmuir) binding model was used to fit the data.

[4] = target: T3, Recombinant human OX40/His; test: SPR
[5] = target: T3, Recombinant human OX40/His; test: SPR
[6] = target: T4, mouse OX40; test: ELISA, OX40 antigen captured on Ni-NTA plate, antibody at 1 ug/mL
Procedure: Ni-NTA plate was captured with 50 ul per well of human, mouse, and rhesus OX40 antigen solutions at a concentration of 1 ug/ml in PBS and incubated 1 hour at room temperature. After washing the plate with 0.05% PBS/Tween, 1 ug/mL the human anti-OX40 antibodies in Blocker™ Casein in PBS (Thermo Fisher Catalog Number: 37528) were added with 50 ul per well and incubated for one hour at room temperature. The plate was washed again with 0.05% PBS/Tween and incubated with 50 ul of Jackson Immuno Research Peroxidase AffiniPure Goat Anti-Human IgG, Fcγ Fragment (Catalog Number: 109-035-098) for one hour at room temperature. After washing, the plate was developed with 1-Step™ Ultra TMB-ELISA Substrate Solution (Thermo Fisher Catalog Number: 34028). The plate was read in the FlexStation 3 at OD 450.

[7] = target: T5, membrane-bound human OX40 (on human …); test: flow cytometry on human OX40-expressing MJ cells

Row | Molecule | Kd [1] | IC50 [2] | Kd [3] | Kd [4] | Kd [5] | binding result [6] | binding result [7]
1 | MOXR0916/RG7888 | 3.2 nM | – | – | – | – | – | –
2 | 5-A8 variant anti-OX40 antibody (antibody, V domains shown) VH: QVQLVQSGAEVKKPGASVKVSCKTSGYTFTGYYLHWVRQAPGQGLEWMGIINPSDGSTRNAQKFEGRVTMTRDTSTSTVYMELSSLSPEDTAVYYCARDLEYIGSGSLSWFDPWGQGTLVTVSS VL: QSALTQPASVSGSPGQSITISCTGSSSDIGGYNSVSWYQQYPGKAPKLIIYDVNNRPSGVSNRFSGSKSGNTASLTISGLQAEDEADYYCSSYTFHTGLVYVFGTGTKVTVL | – | 0.0163 µg/mL | < 5 nM | 4.37 nM | – | – | –
3 | 2B4 wild type anti-OX40 antibody (antibody, V domains shown, Fully human antibody of an IgG class, captured or detected through human Fc; the isotype control used was IgG1; also called 2B4 (WT); wild type 2B4) VH: QMQLVQSGAEVKKPGASVKVSCKTSGYTFTGYYLHWVRQAPGQGLEWMGIINPSDGSTRNAQKFEGRVTMTRDTSTSTVYMELSSLSPEDTAVYYCARDLEYIGSGSLSWFDPWGQGTLVTVSS VL: QPVLTQPASVSGSPGQSITISCTGTSSDLGAYDYVSWYQQQPGQAPKLIIYDVNNRPSGVSNRFSGSKSGNTASLTISGLQAEDEADYYCSSYTSSSTLVYVFGTGTKVTVL | – | 0.168 µg/mL | – | 332 nM | 332 nM | no binding (tested: 1 ug/mL) | binds
4 | 5-H6 variant anti-OX40 antibody (antibody, V domains shown) VH: QVQLVQSGAEVKKPGASVKVSCKTSGYTFTGYYLHWVRQAPGQGLEWMGIINPSDGSTRNAQKFEGRVTMTRDTSTSTVYMELSSLSPEDTAVYYCARDLEYIGSGSLSWFDPWGQGTLVTVSS VL: QSALTQPASVSGSPGQSITISCTGSSSDIGGYNSVSWYQQYPGKAPKLIIYDVNNRPSGVSNRFSGSKSGNTASLTISGLQAEDEADYYCSSYTYDNDLVYVFGTGTKVTVL | – | 0.0275 µg/mL | < 5 nM | 3.51 nM | – | – | –
5 | 5-C8 variant anti-OX40 antibody (antibody, V domains shown) VH: QVQLVQSGAEVKKPGASVKVSCKTSGYTFTGYYLHWVRQAPGQGLEWMGIINPSDGSTRNAQKFEGRVTMTRDTSTSTVYMELSSLSPEDTAVYYCARDLEYIGSGSLSWFDPWGQGTLVTVSS VL: QSALTQPASVSGSPGQSITISCTGSSSDIGGYNSVSWYQQYPGKAPKLIIYDVNNRPSGVSNRFSGSKSGNTASLTISGLQAEDEADYYCSSYTHNTGLVYVFGTGTKVTVL | – | 0.00353 µg/mL | < 5 nM | 4.39 nM | – | – | –
6 | 5-G8 variant anti-OX40 antibody (antibody, V domains shown) VH: QVQLVQSGAEVKKPGASVKVSCKTSGYTFTGYYLHWVRQAPGQGLEWMGIINPSDGSTRNAQKFEGRVTMTRDTSTSTVYMELSSLSPEDTAVYYCARDLEYIGSGSLSWFDPWGQGTLVTVSS VL: QSALTQPASVSGSPGQSITISCTGSSSDIGGYNSVSWYQQYPGKAPKLIIYDVNNRPSGVSNRFSGSKSGNTASLTISGLQAEDEADYYCSSYTYYTELVYVFGTGTKVTVL | – | 0.0254 µg/mL | < 5 nM | 3.8 nM | – | – | –

The remaining molecules from weak to strong by Kd [4], led by results:

Row | Kd [1] | IC50 [2] | Kd [3] | Kd [4] | Kd [5] | binding result [6] | binding result [7] | Molecule
7 | – | 0.0263 µg/mL | < 5 nM | 3.01 nM | – | – | – | 5-F5 variant anti-OX40 antibody (antibody, V domains shown) VH: QVQLVQSGAEVKKPGASVKVSCKTSGYTFTGYYLHWVRQAPGQGLEWMGIINPSDGSTRNAQKFEGRVTMTRDTSTSTVYMELSSLSPEDTAVYYCARDLEYIGSGSLSWFDPWGQGTLVTVSS VL: QSALTQPASVSGSPGQSITISCTGSSSDIGGYNSVSWYQQYPGKAPKLIIYDVNNRPSGVSNRFSGSKSGNTASLTISGLQAEDEADYYCSSYTYDTGLVYVFGTGTKVTVL
8 | – | 0.0117 µg/mL | < 5 nM | 2.41 nM | – | – | – | 5-A6 variant anti-OX40 antibody (antibody, V domains shown) VH: QVQLVQSGAEVKKPGASVKVSCKTSGYTFTGYYLHWVRQAPGQGLEWMGIINPSDGSTRNAQKFEGRVTMTRDTSTSTVYMELSSLSPEDTAVYYCARDLEYIGSGSLSWFDPWGQGTLVTVSS VL: QSALTQPASVSGSPGQSITISCTGSSSDIGGYNSVSWYQQYPGKAPKLIIYDVNNRPSGVSNRFSGSKSGNTASLTISGLQAEDEADYYCSSYTFDTGLVYVFGTGTKVTVL
